Measurements published in patent US11299524B2, “KIF13B-derived peptide and method of inhibiting angiogenesis” (THE BOARD OF TRUSTEES OF THE UNIVERSITY OF ILLINOIS, priority 2016, dated 2022).
Non-standard residues stand in square brackets, D forms with d. Residues, ends and D or L forms follow the SMILES beside them. No end group written: not given here. d2Nal = N[C@H](Cc1ccc2ccccc2c1)C(=O)O; Aib = CC(C)(N)C(=O)O

Columns and labels:
[1] = system: vWF positive endothelial cells in tumors; experiment: delivery of DY633-labeled peptide to tumors in H460-tumor bearing SCID mice; assay type: in vivo, mouse; conditions: 10 mg/kg i.v. via tail vein, tumors dissected after 1 hour
Method: Delivery of the DUF2C5 peptide was tested using synthesized peptide covalently conjugated with DY633 fluorescent probe (Pierce). DY633-DUF2C5 (10 mg/kg body weight), DY633-CT23 or DY633 alone were injected intravenous (i.v.) via tail vein in H460-tumor bearing SCID mice. After 1 hour, tumors were dissected and flash frozen in OCT. Cryosections of tumors were co-stained with vWF to visualize endothelial cells in tumors.

[2] = cited from earlier work
HUVECs [3] = experiment: VEGF-induced capillary network formation on […] in vitro; assay type: cell-based, human; conditions: truncated mutant expressed by lentivirus in HUVECs
Method: (§1) Collagen invasion assay was performed as previously described (Kang, et al. (2011) J. Biol. Chem. 286:42017-26). In vitro capillary network formation on […] (BD Biosciences, San Jose, Calif.) and scratch wound healing assay were performed as previously described (Humtsoe, et al. (2010) Mol. Cell Biol. 30:1593-1606). Fibrin gel sprouting assay was performed as described by Nakatsu & Hughes ((2008) Methods Enzymol. 443:65-82). VEGF (2.2 nmol/L) stimulation was used for all in vitro angiogenesis assays. Transwell migration assay was performed as described by Kaplan, et al. ((2011) Free Radical Res. 45:1124-35) using VEGF (4.4 nmol/L), sphingosine-1-phosphate (S1P) (1 μmol/L), or basic fibroblast growth factor (bFGF) (50 ng/mL) in the presence or absence of kinesin-derived angiogenesis inhibitor (DUF2C5; residues 1238-1260 of KIF13B) at varying concentrations.
(§2) To test the bioactivity of the truncated mutant of KIF13B, DUF2C was expressed by lentivirus vector in HUVECs. […] The collagen invasion system (Kang, et al. (2011) J. Biol. Chem. 286:42017-42026) was used as another angiogenesis assay to test the peptides. After infection with control lentivirus, FLAG-DUF2C, or FLAG-DUF2, HUVECs were seeded on collagen gels. Cell invasion in response to proangiogenic stimuli SIP and VEGF in the gel was monitored for up to 24 hours.
Bioactivities in two-dimensional capillary network formation assay were assessed in HUVECs expressing KIF13B truncated mutants or vector controls. HUVECs were infected with lentiviruses encoding FLAG-C2, -C3, -C5, -C8, -C9, or vector.
Changes in VEGF-induced network formation assay were assessed in […] plugs. […] VEGF-induced EC sprouting was also determined by 3-dimensional culture of HUVECs on beads (Nakatsu & Hughes (2008) Methods Enzymol. 443:65-82).

VEGFR2 = VEGFR2 (Homo sapiens, UniProt P35968); experiment: pull-down binding assay with endogenous VEGFR2 from HUVEC lysates; parameters: endogenous in cells; host or cells: HUVEC; conditions: HUVEC lysate, anti-VEGFR2 western blot
VEGFR2, sequence (P35968 20-1356): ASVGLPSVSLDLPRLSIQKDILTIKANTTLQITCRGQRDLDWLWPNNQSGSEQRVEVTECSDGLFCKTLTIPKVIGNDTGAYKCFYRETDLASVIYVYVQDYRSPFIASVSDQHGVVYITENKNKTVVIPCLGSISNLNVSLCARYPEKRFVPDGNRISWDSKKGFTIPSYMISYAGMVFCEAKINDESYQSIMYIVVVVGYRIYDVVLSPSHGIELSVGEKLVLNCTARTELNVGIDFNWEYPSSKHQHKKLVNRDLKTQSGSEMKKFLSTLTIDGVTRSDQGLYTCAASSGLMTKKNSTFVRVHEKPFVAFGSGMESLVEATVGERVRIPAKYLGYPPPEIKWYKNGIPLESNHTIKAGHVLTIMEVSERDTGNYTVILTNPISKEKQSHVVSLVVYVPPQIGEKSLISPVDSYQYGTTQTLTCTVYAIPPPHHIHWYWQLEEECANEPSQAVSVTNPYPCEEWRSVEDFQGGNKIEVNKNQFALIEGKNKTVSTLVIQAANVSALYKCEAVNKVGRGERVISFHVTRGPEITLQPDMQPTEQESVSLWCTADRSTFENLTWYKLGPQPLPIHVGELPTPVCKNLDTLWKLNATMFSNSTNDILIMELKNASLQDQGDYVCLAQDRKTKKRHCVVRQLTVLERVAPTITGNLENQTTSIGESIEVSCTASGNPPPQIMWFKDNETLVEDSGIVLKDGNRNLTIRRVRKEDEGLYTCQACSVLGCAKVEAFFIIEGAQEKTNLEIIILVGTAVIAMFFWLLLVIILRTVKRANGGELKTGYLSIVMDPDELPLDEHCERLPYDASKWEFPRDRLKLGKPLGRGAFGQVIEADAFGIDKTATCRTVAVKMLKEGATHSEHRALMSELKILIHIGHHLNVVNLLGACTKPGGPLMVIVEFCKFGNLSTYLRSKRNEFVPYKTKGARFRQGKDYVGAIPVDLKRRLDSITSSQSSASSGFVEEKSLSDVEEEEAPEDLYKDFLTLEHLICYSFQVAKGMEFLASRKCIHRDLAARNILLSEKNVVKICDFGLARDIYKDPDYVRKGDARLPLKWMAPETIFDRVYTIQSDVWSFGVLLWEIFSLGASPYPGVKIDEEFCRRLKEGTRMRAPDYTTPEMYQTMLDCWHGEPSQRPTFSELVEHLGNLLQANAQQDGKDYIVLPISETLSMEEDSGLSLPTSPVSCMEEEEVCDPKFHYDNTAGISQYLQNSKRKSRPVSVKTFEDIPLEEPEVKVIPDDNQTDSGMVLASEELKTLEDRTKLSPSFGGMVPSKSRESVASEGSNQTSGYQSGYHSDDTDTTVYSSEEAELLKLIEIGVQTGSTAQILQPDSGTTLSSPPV
Excerpt: Truncated mutants of KIF13B were expressed in BL21 (DE3) or Rosetta-gami and purified as previously described (Yamada, et al. (2014) J. Cell Sci. 127:4518-30; Yamada, et al. (2007) Biochemistry 46:10039-45).
Using recombinant proteins, the binding sites on KIF13B mediating the interaction with VEGFR2 were identified. KIF13B has a motor, forkhead-associated, membrane-associated guanylate kinase-binding stalk, 2 domains of unknown function (DUFs) (DUF3694), and a proline-rich and cytoskeleton-associated protein glycine-rich domain. The DUFs were identified from amino acid sequence similarity on the Pfam database. It has been previously shown that both domains of DUF3694 directly bind recombinant VEGFR2 in vitro (Yamada, et al. (2007) Biochemistry 46:10039-45). To define the specific peptide sequence inhibiting VEGFR2 trafficking, further analysis of the second DUF3694 domain (DUF2, residues 1112-1281 of KIF13B) was carried out. This was based on stability of this domain and a sequence distinct from binding sites for other cargoes of KIF13B (Horiguchi, et al. (2006) J. Cell Biol. 174:425-436; Hanada, et al. (2000) J. Biol. Chem. 275:28774-2878). DUF2 was divided into 3 parts, DUF2A (residues […]), DUF2B (residues 1168-1216), and DUF2C (residues 1217-1281) and each part was expressed as a recombinant protein in bacteria. VEGFR2 was abundantly expressed in HUVECs; thus, cell lysate from HUVECs was incubated with these recombinant proteins on beads, and VEGFR2 binding was determined using the anti-VEGFR2 antibody.
To identify the minimum binding site on VEGFR2, DUF2C was further truncated (DUF2C1-9) (FIG. 1). […] Stability of the C5 peptide was attributed to the 4-6 C-terminal residues. Accordingly, replacing these C-terminal residues with another a peptide, one or more post-translational modifications, one or more non-natural amino acid residues, a macromolecule such as PEG, or a combination thereof, is expected to stabilize the KAI peptide.
Initially, peptide interaction with VEGFR2 was confirmed using the pull-down assay.
To further define the KIF13B residues involved in binding to VEGFR2, truncations of the DUF2C5 peptide were tested for binding to VEGFR2 (Table 3) and compared to binding of DUF2C5 and peptides flanking this region (FIG. 1).

HUVECs [4] = experiment: collagen invasion assay; assay type: cell-based, human; conditions: lentiviral expression; S1P and VEGF; up to 24 hours
Method: as §1, §2

[5] = system: vessel formation of mouse ECs; experiment: […] plug vessel formation assay in mice with lentivirus; assay type: in vivo; conditions: lentivirus s.c. with MATRIGEL, VEGF, bFGF, heparin; C57BL mice
Method: Hematoxylin and eosin staining of […] plug was supplemented with 4.4 nmol/L VEGF, 50 ng/mL of basic fibroblast growth factor, 60 U of heparin, and 0.8×10^8 IFU lentivirus (vector control, DUF2, or DUF2C5, or CT) and injected s.c. in C57BL6 mice. Data are expressed as means±SEM. N=4, 4, 5, and 5 for vector control, DUF2, DUF2C5, and CT, respectively. *P<0.05 (one-way analysis of variance). CT, residues 1528-1826 of KIF13B.
For the […] plug assay used to assess vessel formation of mouse ECs, C57BL6 males (Jackson Laboratory) were used as previously described (Yang & Proweller (2011) J. Biol. Chem. 286:13741-53). […] supplemented with 4.4 nmol/1 VEGF, 50 ng/ml bFGF, 60 U heparin, and 0.8×10^8 IFU of lentivirus was injected subcutaneously into abdomen. Four days after injection, […] was collected.
To address the role of KIF13B in mediating angiogenesis in vivo, the […] plug assay was performed in mice using lentivirus expressing truncated mutants of KIF13B. High titer of lentivirus was injected with […] s.c. into C57BL mice in the presence of VEGF, bFGF, and heparin.

## CC[N+](CCCS(=O)(=O)[O-])=c1ccc2c(C=CC=C3N(CCCCCC(=O)O)c4ccc(S(=O)(=O)[O-])cc4C3(C)C)cc(C(C)(C)C)oc-2c1.[Na+] [DY633]
[1]
  delivery into tumor sites (DY633 label in tumor cryosections): not detected

## CC(C)(N)C(=O)N[C@@H](Cc1c[nH]cn1)C(=O)N[C@H](Cc1ccc2ccccc2c1)C(=O)N[C@H](Cc1ccccc1)C(=O)N[C@@H](CCCCN)C(N)=O [Ipamorelin] (H-[Aib]H[d2Nal][dF]K-NH2)
[2]; in humans
  terminal half-life: about 2 hours

## NC(=O)CC[C@@H]1NC(=O)[C@H](Cc2ccccc2)NC(=O)[C@H](Cc2ccc(O)cc2)NC(=O)[C@@H](N)CSSC[C@@H](C(=O)N2CCC[C@H]2C(=O)N[C@@H](CCCN=C(N)N)C(=O)NCC(N)=O)NC(=O)[C@H](CC(N)=O)NC1=O [vasopressin]
[2]; in humans
  half-life: 0.167 to 0.583 h

## C2: truncated KIF13B domain, residues 1221-1260, recombinant or lentivirus-expressed (FLAG-C2) (VKAEASWDSAVHGCPQLSRGTPVDERLFLIVRVTVQLSHP; not fully specified (N-terminus); also: FLAG tag; UniProt Q9NQT8 1221-1260, looked up, fragment)
HUVECs [3]
  VEGF-induced capillary network formation: significantly reduced
VEGFR2
  VEGFR2 binding: bind VEGFR2

## DUF2A: residues 1111-1167 of KIF13B, recombinant protein (QKLVSKRDKTEDDADREAQLLEMRLTLTEERNAVMVPSAGSGIPGAPAEWTPVPGME; left off: small tags and cut ends)
VEGFR2
  VEGFR2 binding: failed to bind

## DUF2B: residues 1168-1216 of KIF13B, recombinant protein (THIPVIFLDLNADDFSSQDNLDDPEAGGWDATLTGEEEEEFFELQIVKQ; left off: small tags and cut ends)
VEGFR2
  VEGFR2 binding: failed to bind

## PQLSRGTPVDERLFLIVR (listed as Homo sapiens) [DUF2C9, KIF13B residues 1235-1252]
HUVECs [3]
  VEGF-induced capillary network formation: did not significantly reduce
VEGFR2
  VEGFR2 binding: weakly bind VEGFR2
VEGFR2; listed as C9
  VEGFR2 binding: partial or unstable binding

## SRGTPVDERLFLIVRVT (listed as Homo sapiens) [DUF2C6, KIF13B residues 1238-1254]
VEGFR2
  VEGFR2 binding: partial or unstable binding

## TPVDERLFLIVRVTVQ (listed as Homo sapiens) [SEQ ID NO:3, Homo sapiens KAI peptide]
VEGFR2
  VEGFR2 binding: sufficient for VEGFR2 binding

## TPVDERLFLIVRVTVQLSHPADMQLVLRKR . . . QGF (listed as Homo sapiens) [DUF2C3, KIF13B residues 1241-1281]
HUVECs [3]
  VEGF-induced capillary network formation: significantly reduced
VEGFR2
  VEGFR2 binding: bind VEGFR2

## VRVTVQLSHPADMQLVLR (listed as Homo sapiens) [DUF2C8, KIF13B residues 1251-1268]
HUVECs [3]
  VEGF-induced capillary network formation: did not significantly reduce
VEGFR2
  VEGFR2 binding: weakly bind VEGFR2
VEGFR2; listed as C8
  VEGFR2 binding: partial or unstable binding

## albiglutide
[2]; in humans
  half-life: 140 to 170 h

## peginesatide
[2]; in healthy volunteers
  elimination half-life: 18.9 h

B1: DUF2: second DUF3694 domain, residues 1112-1281 of KIF13B (protein, UniProt Q9NQT8 1112-1281, looked up, fragment)
chain: KLVSKRDKTEDDADREAQLLEMRLTLTEERNAVMVPSAGSGIPGAPAEWTPVPGMETHIPVIFLDLNADDFSSQDNLDDPEAGGWDATLTGEEEEEFFELQIVKQHDGEVKAEASWDSAVHGCPQLSRGTPVDERLFLIVRVTVQLSHPADMQLVLRKRICVNVHGRQGF
HUVECs [4]
  distance of invasion: significantly reduced
  invasion of HUVECs into collagen gel: significantly reduced
  number of lumen formed: significantly reduced
  thickness of invading sprouts: not different among the groups
[5]
  number of vessels in MATRIGEL plug: significantly reduced

B2: DUF2C: residues 1217-1281 of KIF13B, recombinant protein (protein)
chain: HDGEVKAEASWDSAVHGCPQLSRGTPVDERLFLIVRVTVQLSHPADMQLVLRKRICVNVHGRQGF
modifications: left off: small tags and cut ends
notes: residues 1217-1281 of KIF13B, recombinant protein
HUVECs [4]
  distance of invasion: significantly reduced
  invasion of HUVECs into collagen gel: significantly reduced
  number of lumen formed: significantly reduced
  thickness of invading sprouts: not different among the groups
HUVECs [3]
  VEGF-induced capillary network formation: sufficient to reduce
VEGFR2
  VEGFR2 binding: specifically binds

B3: CT: C-terminus region of KIF13B (residues 1528 to 1826), negative control (protein, UniProt Q9NQT8 1528-1826, looked up, fragment)
chain: ICDKPAKVPSPPPVIAVTAVTPAPEAQDGPPSPLSEASSGYFSHSVSTATLSDALGPGLDAAAPPGSMPTAPEAEPEAPISHPPPPTAVPAEEPPGPQQLVSPGRERPDLEAPAPGSPFRVRRVRASELRSFSRMLAGDPGCSPGAEGNAPAPGAGGQALASDSEEADEVPEWLREGEFVTVGAHKTGVVRYVGPADFQEGTWVGVELDLPSGKNDGSIGGKQYFRCNPGYGLLVRPSRVRRATGPVRRRSTGLRLGAPEARRSATLSGSATNLASLTAALAKADRSHKNPENRKSWAS
HUVECs [3]
  VEGF-induced capillary network formation: formed capillary networks
[5]
  number of vessels in MATRIGEL plug: no significant effect
VEGFR2
  VEGFR2 binding: does not bind
